From publication PMC10776994, “The SDS22:PP1:I3 complex: SDS22 binding to PP1 loosens the active site metal to prime metal exchange” (The Journal of Biological Chemistry, 2023) come the findings set out here.

Substitutions are numbered along the chain they refer to. In names and notes the source's numbering stands.

What all share (conditions): both partners purified
The target of assay [1] is T1, SDS22_(56-360):PP1α_(7-330) complex (UniProt Q15435 56-360; P62136 7-330).
T1 construct: SDS22 (PPP1R7), residues 56-360; Protein phosphatase 1 alpha catalytic subunit (PP1α), residues 7-330; PP1 in this complex lacks the M1 metal; The same complex treated with EDTA (M2 metal extracted) is kept as this molecule and told apart by assay a4; the His6 tag of SDS22 was cleaved, so it is probably His6-PP1; also called SDS22:PP1; SDS22:PP1_(M2-metal-free) / metal-free …
The assay is described as follows: SPR; His6-PP1 constructs or SDS22_(56-360):PP1α_(7-330) captured on a Ni-NTA chip (NiHC200M), I3 and variants injected; 25 °C; 20 mM Tris pH 8.0, 500 mM NaCl, 0.5 mM TCEP, 0.05% Tween-20; one-to-one one-state or two-state fit.

The target of assay [2] is T1, SDS22_(56-360):PP1α_(7-330) complex. The assay is described as follows: SPR; as a3, but SDS22_(56-360):PP1α_(7-330) treated with 3 mM EDTA beforehand and dialysed to extract the M2 metal (metal-free PP1); one-state fit. (In general: Surface plasmon resonance follows binding to a sensor surface in real time, without labels.)
A further assay deals with T2, PP1α_(7-330) R96A (UniProt P62136 7-330, R96A).
T2 construct: Protein phosphatase 1 alpha catalytic subunit (PP1α), residues 7-330; also called PP1_(R96A); PP1_(7-330) R96A
The assay is described as follows: SPR; His6-PP1 constructs or SDS22_(56-360):PP1α_(7-330) captured on a Ni-NTA chip (NiHC200M), I3 and variants injected; 25 °C; 20 mM Tris pH 8.0, 500 mM NaCl, 0.5 mM TCEP, 0.05% Tween-20; one-to-one one-state or two-state fit.

For the next assay, the target named is T3, PP1α_(7-330) R96A/H66K (UniProt P62136 7-330, R96A | H66K).
T3 construct: Protein phosphatase 1 alpha catalytic subunit (PP1α), residues 7-330; also called PP1_(7-330) R96A/H66K
The assay is described as above.

The next assay concerns the target T4, PP1α_(7-330) Y134A (UniProt P62136 7-330, Y134A).
T4 construct: Protein phosphatase 1 alpha catalytic subunit (PP1α), residues 7-330; also called PP1_(Y134A); PP1_(7-330) Y134A
Described as above.

A further assay addresses T5, PP1α_(7-330) Y134A/H66K (UniProt P62136 7-330, Y134A | H66K).
T5 construct: Protein phosphatase 1 alpha catalytic subunit (PP1α), residues 7-330; also called PP1_(7-330) Y134A/H66K
Described as above.

Broadly, the Kd is a measure of binding affinity in units of concentration. Low readings indicate tighter binding, high ones weaker binding.

T1 sequence (Q15435 56-360, chain 1 of 2): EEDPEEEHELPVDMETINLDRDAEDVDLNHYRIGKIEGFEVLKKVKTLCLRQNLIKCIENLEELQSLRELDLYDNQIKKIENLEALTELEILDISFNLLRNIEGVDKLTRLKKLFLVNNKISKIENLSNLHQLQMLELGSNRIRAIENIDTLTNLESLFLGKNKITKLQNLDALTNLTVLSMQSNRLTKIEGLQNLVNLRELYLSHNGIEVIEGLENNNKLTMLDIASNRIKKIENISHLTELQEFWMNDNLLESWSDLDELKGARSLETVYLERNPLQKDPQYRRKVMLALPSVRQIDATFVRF
T1 sequence (P62136 7-330, chain 2 of 2): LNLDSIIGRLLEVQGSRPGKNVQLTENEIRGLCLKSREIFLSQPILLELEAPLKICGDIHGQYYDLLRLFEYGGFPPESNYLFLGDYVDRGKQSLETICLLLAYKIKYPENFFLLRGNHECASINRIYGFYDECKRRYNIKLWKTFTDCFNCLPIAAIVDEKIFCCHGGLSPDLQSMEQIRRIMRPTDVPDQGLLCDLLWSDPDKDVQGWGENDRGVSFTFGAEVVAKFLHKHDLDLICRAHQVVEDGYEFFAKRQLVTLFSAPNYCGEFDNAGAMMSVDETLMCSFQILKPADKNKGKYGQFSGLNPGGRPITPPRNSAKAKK
T4 sequence (P62136 7-330 Y134A): as the sequence (P62136 7-330, chain 2 of 2) above, with Y128A counted along it
T2 sequence (P62136 7-330 R96A): as the sequence (P62136 7-330, chain 2 of 2) above, with R90A counted along it
T3 sequence (P62136 7-330 H66K/R96A): as the sequence (P62136 7-330, chain 2 of 2) above, with H60K, R90A counted along it
T5 sequence (P62136 7-330 H66K/Y134A): as the sequence (P62136 7-330, chain 2 of 2) above, with H60K, Y128A counted along it

B1: I3_(27-59) (Δ60–68) (domain or fragment, human, UniProt O60927 27-59, looked up)
chain: SLTIKLRKRKPEKKVEWTSDTVDNEHMGRRSSK
notes: made by a stop codon in the I3 27-68 construct; lacks the CCC motif; also called I3_(ΔCCC); CCC_(deletion); source: E. coli BL21 (DE3), purified (Ni-NTA, TEV, heat 95 °C, SEC); not shown: His6, N-terminal, cleaved; MBP, N-terminal, cleaved
B1 returned a Kd in assay [1] of 396 ± 11 nM.

B2: I3_(27-68) (domain or fragment, human, UniProt O60927 27-68, looked up)
chain: SLTIKLRKRKPEKKVEWTSDTVDNEHMGRRSSKCCCIYEKPR
notes: source: E. coli BL21 (DE3), purified (Ni-NTA, TEV, heat 95 °C, SEC); not shown: His6, N-terminal, cleaved; MBP, N-terminal, cleaved
For the molecule B2, the Kd in assay [2] stood at 605 ± 32 nM; in the assay with PP1α_(7-330) R96A it was 12 ± 1 nM; with PP1α_(7-330) R96A/H66K it was 7 ± 1 nM; with PP1α_(7-330) Y134A it was 9 ± 2 nM; with PP1α_(7-330) Y134A/H66K, 12 ± 3 nM; in assay [1] it was 116 ± 12 nM.

B3: I3_(27-68) C60S/C61S/C62S (domain or fragment, human, UniProt O60927 27-68, looked up)
chain: B2 chain with C34S, C35S, C36S
notes: also called I3_(27-68) SSS; SSS: I3_(27-68) CCC→SSS; source: E. coli BL21 (DE3), purified (Ni-NTA, TEV, heat 95 °C, SEC); not shown: His6, N-terminal, cleaved; MBP, N-terminal, cleaved
With B3, binding in assay [1] was put at a Kd of 429 ± 30 nM.
